Assay results published in paper doi:10.1101/2024.12.20.629683 (bioRxiv, 2024).

Target: Ryanodine receptor 1 (RyR1) (rabbit (endogenous in skeletal muscle), UniProt P11716)
Test: cryo-EM structure

Ryanodine receptor 1 (RyR1), sequence (P11716 whole entry): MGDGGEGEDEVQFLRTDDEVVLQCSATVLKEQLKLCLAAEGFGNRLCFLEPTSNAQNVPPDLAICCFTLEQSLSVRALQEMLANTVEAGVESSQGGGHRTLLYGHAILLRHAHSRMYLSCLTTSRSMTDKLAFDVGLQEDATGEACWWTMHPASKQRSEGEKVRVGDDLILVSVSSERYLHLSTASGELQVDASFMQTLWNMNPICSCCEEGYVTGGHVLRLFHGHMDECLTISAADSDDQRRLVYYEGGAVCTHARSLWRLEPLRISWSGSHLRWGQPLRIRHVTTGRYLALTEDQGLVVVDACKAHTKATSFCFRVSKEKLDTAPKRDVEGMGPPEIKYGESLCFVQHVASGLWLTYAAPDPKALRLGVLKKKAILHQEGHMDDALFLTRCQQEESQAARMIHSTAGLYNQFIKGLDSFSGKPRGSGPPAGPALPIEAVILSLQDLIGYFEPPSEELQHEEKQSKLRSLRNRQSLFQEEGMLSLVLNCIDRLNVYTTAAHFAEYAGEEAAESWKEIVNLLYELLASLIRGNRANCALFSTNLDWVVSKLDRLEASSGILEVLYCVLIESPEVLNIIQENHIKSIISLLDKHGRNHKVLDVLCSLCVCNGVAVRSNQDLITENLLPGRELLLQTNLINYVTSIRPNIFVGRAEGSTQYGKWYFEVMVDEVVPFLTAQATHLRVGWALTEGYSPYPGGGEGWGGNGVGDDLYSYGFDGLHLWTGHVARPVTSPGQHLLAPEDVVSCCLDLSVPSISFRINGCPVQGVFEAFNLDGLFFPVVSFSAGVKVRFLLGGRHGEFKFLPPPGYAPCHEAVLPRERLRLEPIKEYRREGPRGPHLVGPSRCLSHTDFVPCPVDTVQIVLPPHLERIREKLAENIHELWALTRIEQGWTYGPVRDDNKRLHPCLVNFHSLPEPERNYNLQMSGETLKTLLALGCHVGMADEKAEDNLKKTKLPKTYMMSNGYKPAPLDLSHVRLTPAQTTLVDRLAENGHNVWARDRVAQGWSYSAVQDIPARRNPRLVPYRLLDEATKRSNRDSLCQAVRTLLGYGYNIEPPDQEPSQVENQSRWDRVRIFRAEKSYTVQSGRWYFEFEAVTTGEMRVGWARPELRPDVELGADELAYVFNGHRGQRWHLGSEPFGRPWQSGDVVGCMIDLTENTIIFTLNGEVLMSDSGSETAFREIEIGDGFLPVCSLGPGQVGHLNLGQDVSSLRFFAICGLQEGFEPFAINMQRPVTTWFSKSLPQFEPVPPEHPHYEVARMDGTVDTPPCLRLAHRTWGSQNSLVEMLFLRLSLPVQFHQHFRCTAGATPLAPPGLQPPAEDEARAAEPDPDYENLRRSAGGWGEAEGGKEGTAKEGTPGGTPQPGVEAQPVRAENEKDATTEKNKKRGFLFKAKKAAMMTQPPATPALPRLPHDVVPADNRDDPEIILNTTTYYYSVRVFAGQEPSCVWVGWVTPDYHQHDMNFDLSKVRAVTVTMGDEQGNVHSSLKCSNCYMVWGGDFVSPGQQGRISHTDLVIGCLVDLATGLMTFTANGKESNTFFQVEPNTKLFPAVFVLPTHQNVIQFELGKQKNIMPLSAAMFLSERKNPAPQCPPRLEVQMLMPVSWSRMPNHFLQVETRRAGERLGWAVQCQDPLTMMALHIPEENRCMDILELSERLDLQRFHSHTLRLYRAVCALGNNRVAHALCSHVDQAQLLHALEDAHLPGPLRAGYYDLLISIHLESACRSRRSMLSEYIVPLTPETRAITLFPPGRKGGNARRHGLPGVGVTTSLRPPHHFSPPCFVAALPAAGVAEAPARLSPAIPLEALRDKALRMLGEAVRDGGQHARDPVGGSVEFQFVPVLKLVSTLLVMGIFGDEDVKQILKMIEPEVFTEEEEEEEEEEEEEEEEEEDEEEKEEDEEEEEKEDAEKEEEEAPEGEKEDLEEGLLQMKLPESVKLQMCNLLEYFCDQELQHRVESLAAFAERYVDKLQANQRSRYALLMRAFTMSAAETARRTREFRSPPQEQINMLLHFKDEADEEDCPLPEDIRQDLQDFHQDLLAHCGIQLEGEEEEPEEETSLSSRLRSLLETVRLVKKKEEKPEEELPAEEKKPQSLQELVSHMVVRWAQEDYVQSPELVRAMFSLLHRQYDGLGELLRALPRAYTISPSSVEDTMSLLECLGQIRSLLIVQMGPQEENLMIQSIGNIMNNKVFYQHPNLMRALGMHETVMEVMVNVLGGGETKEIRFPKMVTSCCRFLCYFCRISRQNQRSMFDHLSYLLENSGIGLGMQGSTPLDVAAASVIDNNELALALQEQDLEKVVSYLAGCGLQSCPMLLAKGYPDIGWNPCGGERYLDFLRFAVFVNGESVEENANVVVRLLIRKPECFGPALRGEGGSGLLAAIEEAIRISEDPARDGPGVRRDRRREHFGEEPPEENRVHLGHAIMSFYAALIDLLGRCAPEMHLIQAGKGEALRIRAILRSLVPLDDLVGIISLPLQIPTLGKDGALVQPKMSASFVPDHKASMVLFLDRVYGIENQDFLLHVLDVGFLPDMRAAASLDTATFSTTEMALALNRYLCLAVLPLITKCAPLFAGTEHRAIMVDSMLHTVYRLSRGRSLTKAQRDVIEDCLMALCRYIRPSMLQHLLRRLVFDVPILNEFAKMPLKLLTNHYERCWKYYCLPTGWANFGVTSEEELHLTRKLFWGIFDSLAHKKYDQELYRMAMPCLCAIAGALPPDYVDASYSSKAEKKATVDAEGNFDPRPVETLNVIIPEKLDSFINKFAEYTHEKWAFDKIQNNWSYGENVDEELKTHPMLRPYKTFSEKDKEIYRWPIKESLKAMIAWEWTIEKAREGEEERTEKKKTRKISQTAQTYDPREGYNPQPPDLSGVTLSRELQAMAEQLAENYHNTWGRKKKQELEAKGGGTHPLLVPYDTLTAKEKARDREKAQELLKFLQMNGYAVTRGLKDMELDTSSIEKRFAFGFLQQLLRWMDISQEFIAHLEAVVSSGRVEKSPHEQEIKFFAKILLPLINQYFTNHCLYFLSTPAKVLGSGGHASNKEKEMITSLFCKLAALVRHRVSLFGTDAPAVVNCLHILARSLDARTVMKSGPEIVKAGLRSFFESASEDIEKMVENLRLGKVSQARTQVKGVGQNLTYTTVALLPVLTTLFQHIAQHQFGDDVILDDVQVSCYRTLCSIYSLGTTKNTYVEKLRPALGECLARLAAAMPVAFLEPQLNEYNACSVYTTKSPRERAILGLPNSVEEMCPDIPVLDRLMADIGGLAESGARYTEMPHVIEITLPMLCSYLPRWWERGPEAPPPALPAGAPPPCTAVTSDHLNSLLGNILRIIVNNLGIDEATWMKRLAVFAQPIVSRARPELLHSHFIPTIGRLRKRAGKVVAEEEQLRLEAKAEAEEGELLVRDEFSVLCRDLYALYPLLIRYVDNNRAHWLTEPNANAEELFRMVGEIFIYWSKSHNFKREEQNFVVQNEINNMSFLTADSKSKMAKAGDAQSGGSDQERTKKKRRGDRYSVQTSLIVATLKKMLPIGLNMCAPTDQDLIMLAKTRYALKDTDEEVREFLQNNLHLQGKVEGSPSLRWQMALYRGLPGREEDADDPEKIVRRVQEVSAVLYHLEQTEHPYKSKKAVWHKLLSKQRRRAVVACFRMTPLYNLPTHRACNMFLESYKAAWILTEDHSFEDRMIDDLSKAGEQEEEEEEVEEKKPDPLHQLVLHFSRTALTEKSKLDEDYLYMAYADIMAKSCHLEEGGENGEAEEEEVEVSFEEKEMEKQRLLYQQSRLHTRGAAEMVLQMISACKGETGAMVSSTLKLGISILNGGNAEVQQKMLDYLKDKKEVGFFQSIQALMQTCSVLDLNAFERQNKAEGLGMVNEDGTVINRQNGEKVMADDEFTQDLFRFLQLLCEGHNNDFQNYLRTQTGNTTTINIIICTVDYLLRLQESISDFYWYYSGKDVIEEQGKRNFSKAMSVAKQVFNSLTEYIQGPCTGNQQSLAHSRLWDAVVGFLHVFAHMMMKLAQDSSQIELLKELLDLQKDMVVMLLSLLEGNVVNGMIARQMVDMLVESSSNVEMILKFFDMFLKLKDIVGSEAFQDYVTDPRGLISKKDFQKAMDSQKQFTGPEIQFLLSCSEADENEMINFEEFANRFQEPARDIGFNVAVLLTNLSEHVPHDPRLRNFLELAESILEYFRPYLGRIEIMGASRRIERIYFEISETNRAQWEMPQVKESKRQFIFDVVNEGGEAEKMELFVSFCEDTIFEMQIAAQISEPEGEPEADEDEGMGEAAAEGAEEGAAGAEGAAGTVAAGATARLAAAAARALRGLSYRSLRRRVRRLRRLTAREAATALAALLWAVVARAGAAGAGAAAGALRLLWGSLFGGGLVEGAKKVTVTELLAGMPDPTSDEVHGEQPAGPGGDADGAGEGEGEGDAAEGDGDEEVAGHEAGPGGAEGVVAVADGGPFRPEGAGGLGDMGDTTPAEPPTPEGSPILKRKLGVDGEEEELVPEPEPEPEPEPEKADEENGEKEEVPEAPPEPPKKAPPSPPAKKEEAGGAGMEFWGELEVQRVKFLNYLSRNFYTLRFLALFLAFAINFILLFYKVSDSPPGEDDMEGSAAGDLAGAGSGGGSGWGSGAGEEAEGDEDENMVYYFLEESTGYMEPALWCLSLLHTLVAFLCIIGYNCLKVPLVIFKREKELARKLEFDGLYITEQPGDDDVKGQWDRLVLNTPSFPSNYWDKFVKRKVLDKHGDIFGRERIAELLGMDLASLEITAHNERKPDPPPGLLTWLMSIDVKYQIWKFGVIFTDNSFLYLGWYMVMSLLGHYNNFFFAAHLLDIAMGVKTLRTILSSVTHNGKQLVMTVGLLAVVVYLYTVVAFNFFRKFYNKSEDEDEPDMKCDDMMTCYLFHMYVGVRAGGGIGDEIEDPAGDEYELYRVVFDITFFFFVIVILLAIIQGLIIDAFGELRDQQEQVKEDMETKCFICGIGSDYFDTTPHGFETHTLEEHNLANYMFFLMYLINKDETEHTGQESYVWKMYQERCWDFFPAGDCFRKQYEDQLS

binding result: binds
B1: RyR-specific nanobody Nb9657 (VHH)
VHH: QVQLQESGGGLMQAGGSLRLSCTASGSIFSINSMGWYRQAPGKQRELVATITSGNSINYADSVKGRFTISRDNAKNTVYLQMNSLKPEDTAVYYCNADRVPNGYNPWGTPNDEYDYWGQGTQVTVSS
